Source: paper PMC6692446, “Characterization of H/D exchange in type 1 pili by proton-detected solid-state NMR and molecular dynamics simulations” (Journal of Biomolecular Nmr, 2019)

Target: the molecule itself
Assay: H/D exchange followed by proton-detected solid-state NMR; pre-assembled reprotonated pili washed four times with 100% D2O buffer (10 mM sodium phosphate pH 7.0, 0.02% sodium azide), each with 4 h at room temperature; peak volumes of 3D (H)CANH spectra of redeuterated and reprotonated pili compared; 40 kHz MAS, 16.4 T, 17 °C; protection assigned to intra- or intermolecular contacts on the cryo-EM structure PDB 5OH0

B1: FimA, type 1 pilus rod subunit (recombinant, assembled in vitro into type 1 pili) (natural protein, Escherichia coli, UniProt P04128 24-182, looked up)
chain: AATTVNGGTVHFKGEVVNAACAVDAGSVDQTVQLGQVRTASLAQEGATSSAVGFNIQLNDCDTNVASKAAVAFLGTAIDAGHTNVLALQSSAAGSATNVGVQILDRTGAALTLDGATFSSETTLNNGTNTIPFQARYFATGAATPGAANADATFKVQYQ
notes: FimA, major subunit of the type 1 pilus rod of Escherichia coli; Uniformly [2H,13C,15N]-labelled, proton back-exchanged at labile sites; Intramolecular disulfide Cys21-Cys61; In the pilus each subunit's N-terminal donor strand complements the neighbouring subunit; also called polymerized FimA; reprotonated pili
Question: Does B1 bind?
Answer: binds
